# Experimental data reported in paper PMC9343967 (Nature, 2021).
# Numbering of substitutions follows the chain as printed. Names may count otherwise.
# T1: LTK_(TG–EGFL) (human LTK residues 63–420) (human, UniProt P29376 63-420)
# T1 sequence (looked up): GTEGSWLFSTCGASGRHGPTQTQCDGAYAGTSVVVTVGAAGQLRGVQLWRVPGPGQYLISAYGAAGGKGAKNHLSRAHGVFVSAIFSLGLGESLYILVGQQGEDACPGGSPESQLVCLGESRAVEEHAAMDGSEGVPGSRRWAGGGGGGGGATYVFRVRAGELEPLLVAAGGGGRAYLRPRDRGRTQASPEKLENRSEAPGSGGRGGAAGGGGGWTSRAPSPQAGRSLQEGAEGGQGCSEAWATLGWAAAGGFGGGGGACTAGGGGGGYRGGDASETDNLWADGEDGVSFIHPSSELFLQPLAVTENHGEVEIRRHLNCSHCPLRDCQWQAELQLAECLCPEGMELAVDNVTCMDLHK
# B1: ALKAL2 (residues 78–152, conserved C-terminal domain) (ligand, human, UniProt Q6UX46 78-152, looked up)
# chain: PSPEQRVEIVPRDLRMKDKFLKHLTGPLYFSPKCSKHFHRLYHNTRDCTIPAYYKRCARLLTRLAVSPVCMEDKQ
# B2: purified ALKAL2^F97E (used in Ba/F3 and SEC-MALLS assays) (ligand, human, UniProt Q6UX46 78-152, looked up)
# chain: B1 chain with F20E
# B3: ALKAL1 (residues 57–129, conserved C-terminal domain) (ligand, human, UniProt Q6UXT8 57-129, looked up)
# chain: PSGSRSAEIFPRDSNLKDKFIKHFTGPVTFSPECSKHFHRLYYNTRECSTPAYYKRCARLLTRLAVSPLCSQT
# B4: purified ALKAL1^F76E (used in Ba/F3 and SEC-MALLS assays) (ligand, human, UniProt Q6UXT8 57-129, looked up)
# chain: B3 chain with F20E
# B5: ALK_(TG–EGFL) (human ALK residues 648–1038) (domain or fragment, UniProt Q9UM73 648-1038, looked up)
# chain: TAPKSRNLFERNPNKELKPGENSPRQTPIFDPTVHWLFTTCGASGPHGPTQAQCNNAYQNSNLSVEVGSEGPLKGIQIWKVPATDTYSISGYGAAGGKGGKNTMMRSHGVSVLGIFNLEKDDMLYILVGQQGEDACPSTNQLIQKVCIGENNVIEEEIRVNRSVHEWAGGGGGGGGATYVFKMKDGVPVPLIIAAGGGGRAYGAKTDTFHPERLENNSSVLGLNGNSGAAGGGGGWNDNTSLLWAGKSLQEGATGGHSCPQAMKKWGWETRGGFGGGGGGCSSGGGGGGYIGGNAASNNDPEMDGEDGVSFISPLGILYTPALKVMEGHGEVNIKHYLNCSHCEVDECHMDPESHKVICFCDHGTVLAEDGVSCIVSPTPEPHLPLSLILS
# B6: ALKTG (human ALK residues 648–985) (domain or fragment, UniProt Q9UM73 648-985, looked up)
# chain: TAPKSRNLFERNPNKELKPGENSPRQTPIFDPTVHWLFTTCGASGPHGPTQAQCNNAYQNSNLSVEVGSEGPLKGIQIWKVPATDTYSISGYGAAGGKGGKNTMMRSHGVSVLGIFNLEKDDMLYILVGQQGEDACPSTNQLIQKVCIGENNVIEEEIRVNRSVHEWAGGGGGGGGATYVFKMKDGVPVPLIIAAGGGGRAYGAKTDTFHPERLENNSSVLGLNGNSGAAGGGGGWNDNTSLLWAGKSLQEGATGGHSCPQAMKKWGWETRGGFGGGGGGCSSGGGGGGYIGGNAASNNDPEMDGEDGVSFISPLGILYTPALKVMEGHGEVNIKHYL
# Tests used:
# [1] = biological target: B5; assay: ITC
# [2] = biological target: T1, LTK_(TG–EGFL) (human LTK residues …); assay: ITC
# [3] = biological target: full-length ALK ectodomain (ALKFL, residues 19–1038) (human, UniProt Q9UM73 19-1038); assay: ITC
# [4] = biological target: B5; assay: SEC-MALS
# [5] = biological target: T1, LTK_(TG–EGFL) (human LTK residues …); assay: SEC-MALS
# [6] = biological target: B3; assay: SEC-MALS
# [7] = biological target: B1; assay: ITC
# [8] = biological target: B3; assay: ITC
Binder,Kd [1] [nM],Kd [2] [nM],stoichiometry N [4] [receptor per cytokine],stoichiometry N [5],further results
B1,40,55,1,2 receptors per cytokine,stoichiometry N [3]: 1 receptor per cytokine
B2,–,–,1,–,–
B3,600,10,–,2 receptors per cytokine,–
B4,–,–,–,1 receptor per cytokine,–
B5,–,–,–,–,stoichiometry N [6]: 1 receptor per cytokine
B6,–,–,–,–,fold reduction of affinity on removal of EGFL (against ALK_(TG–EGFL)) [7]: 30 fold; fold reduction of affinity on removal of EGFL (against ALK_(TG–EGFL)) [8]: 4 fold
